In patent publication US20240392020A1 (JIANGSU HENGRUI PHARMACEUTICALS, published 2024):
Values belong to the binder of their own block, whether it stands above or below them.

Key:
HJ-4-L2 = target: T1, HJ-4-L2; assay: mass spectrometry of the product of four co-transfected chains of HJ-4; mispairing of heavy chain 2 with light chain 3
T1 construct: also called chain 3 of HJ-4

[1] = target: T2, HJ-3-H1 (heavy chain of H0, knob, CH1 replaced with T.10-L1); assay: co-expression of three chains, mass spectrometry
T2 construct: single antibody chain, co-expressed

[2] = target: T3, Heavy chain of U0 (with a knob modification); assay: co-expression (B/U-2), mass spectrometry
T3 construct: single antibody chain, co-expressed; also called B-H2

[3] = target: T4, Heavy chain of B0 (with a hole modification); assay: co-expression (B/U-2), mass spectrometry
T4 construct: single antibody chain, co-expressed; also called B-H1 of B/U-2

HJ-1-L1 = target: T5, HJ-1-L1; assay: mass spectrometry of the product of four co-transfected chains of HJ-1; mispairing of heavy chain 2 with light chain 3
T5 construct: also called chain 3 of HJ-1

T4 sequence (heavy, as listed by the source): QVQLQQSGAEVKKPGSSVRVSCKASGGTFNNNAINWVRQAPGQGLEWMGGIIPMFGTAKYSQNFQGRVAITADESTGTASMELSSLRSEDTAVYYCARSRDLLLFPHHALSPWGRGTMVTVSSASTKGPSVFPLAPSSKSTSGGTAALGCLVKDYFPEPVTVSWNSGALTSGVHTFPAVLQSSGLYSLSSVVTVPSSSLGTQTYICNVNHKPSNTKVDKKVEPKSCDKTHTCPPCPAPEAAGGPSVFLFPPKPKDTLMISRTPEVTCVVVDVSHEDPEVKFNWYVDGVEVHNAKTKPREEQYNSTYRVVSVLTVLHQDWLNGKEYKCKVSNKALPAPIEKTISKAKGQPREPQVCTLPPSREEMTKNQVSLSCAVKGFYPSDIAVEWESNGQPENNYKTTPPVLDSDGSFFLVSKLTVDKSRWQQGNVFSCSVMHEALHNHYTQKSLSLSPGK
T3 sequence (heavy, as listed by the source): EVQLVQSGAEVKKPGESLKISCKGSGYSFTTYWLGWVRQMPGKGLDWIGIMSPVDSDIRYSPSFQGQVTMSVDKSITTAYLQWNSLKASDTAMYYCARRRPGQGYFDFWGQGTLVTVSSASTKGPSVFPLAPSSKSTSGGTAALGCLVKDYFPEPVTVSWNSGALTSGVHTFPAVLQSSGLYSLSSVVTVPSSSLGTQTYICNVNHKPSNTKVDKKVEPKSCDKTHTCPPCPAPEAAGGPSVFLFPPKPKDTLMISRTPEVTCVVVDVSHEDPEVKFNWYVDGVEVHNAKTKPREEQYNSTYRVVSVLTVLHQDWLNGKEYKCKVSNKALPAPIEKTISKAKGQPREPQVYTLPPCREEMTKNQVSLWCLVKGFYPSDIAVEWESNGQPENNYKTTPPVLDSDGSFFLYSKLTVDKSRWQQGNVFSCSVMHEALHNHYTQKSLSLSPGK

B1: HJ-4-H1 (other)
heavy: EVQLVESGGGLVQPGGSLRLSCAASGFTFSHYYMAWVRQAPGKGLEWVTSISYEGDITYYGDSVKGRFTISRDNSKNTLYLQMNSLRAEDTATYYCASQTLRESFDYWGQGTLVTVSSASTKGPSVFPLAPSSKSTSGGTAALGCLVKDYFPEPVTVSWNSGALTSGVHTFPAVLQSSGLYSLSSVVTVPSSSLGTQTYICNVNHKPSNTKVDKKVEPKSCDKTHTCPPCPAPEAAGGPSVFLFPPKPKDTLMISRTPEVTCVVVDVSHEDPEVKFNWYVDGVEVHNAKTKPREEQYNSTYRVVSVLTVLHQDWLNGKEYKCKVSNKALPAPIEKTISKAKGQPREPQVCTLPPSREEMTKNQVSLSCAVKGFYPSDIAVEWESNGQPENNYKTTPPVLDSDGSFFLVSKLTVDKSRWQQGNVFSCSVMHEALHNHYTQKSLSLSPGKDYKDDDDK
notes: also called chain 2 of HJ-4
binding result (HJ-4-L2): no binding

B2: Light chain of J1 (other)
light: SIVMTQTPLSLSVTPGQPASISCKASQSVSSDVTWYLQKPGQSPQLLIYYVSEHYTGVPDRFSGSGYGTDFTLKISRVEAEDVGVYYCQQHHRFPLTFGQGTKLEIKRTVAAPSVFIFPPSDEQLKSGTASVVCLLNNFYPREAKVQWKVDNALQSGNSQESVTEQDSKDSTYSLSSTLTLSKADYEKHKVYACEVTHQGLSSPVTKSFNRGEC
notes: single antibody chain, co-expressed; also called HJ-1-L2; HJ-3-L2
binding result [1]: no binding

The next lines start with the values.

binding result [2]: no binding
binding result [3]: no binding
B3: Chain formed by replacement of CL of light chain of B0 with O.20 (other)
light: SSELTQDPAVSVALGQTVRVTCQGDSLRSYYASWYQQKPGQAPVLVIYGKNNRPSGIPDRFSGSSSGNTASLTITGAQAEDEADYYCSSRDSSGNHWVFGGGTELTVLSGAPRFLTRPLAFVVSVGKDATLSSQIVGNPTPQVSWEKDKQPVTAGARFRLAQDGDLYRLKILDLQLSDSGQYVSRARNAIGEAFACLGLQVDAEA
notes: single antibody chain, co-expressed; also called B-L1 of B/U-1 and B/U-2

binding result (HJ-1-L1): no binding
B4: HJ-1-H2 (other)
heavy: EVQLVQSGAEVKKPGSSVKVSCKASGYTFSNYLIEWVRQAPGQGLEWIGVIDPGVGDTNYNENFKGRATLTADKSTSTAYIELSSLRSEDTAVYYCAREDNTGTAFDYWGQGTTVTVSSASTKGPSVFPLAPSSKSTSGGTAALGCLVKDYFPEPVTVSWNSGALTSGVHTFPAVLQSSGLYSLSSVVTVPSSSLGTQTYICNVNHKPSNTKVDKKVEPKSCDKTHTCPPCPAPEAAGGPSVFLFPPKPKDTLMISRTPEVTCVVVDVSHEDPEVKFNWYVDGVEVHNAKTKPREEQYNSTYRVVSVLTVLHQDWLNGKEYKCKVSNKALPAPIEKTISKAKGQPREPQVCTLPPSREEMTKNQVSLSCAVKGFYPSDIAVEWESNGQPENNYKTTPPVLDSDGSFFLVSKLTVDKSRWQQGNVFSCSVMHEALHNHYTQKSLSLSPGKDYKDDDDK
notes: also called chain 2 of HJ-1
